The values below come from patent publication US20130288389A1.

Assay in all cases: cell-based or functional assay
Test [1] concerns the target PrP^Sc of 263K scrapie-infected Syrian golden hamsters (Syrian golden hamster) (UniProt P04273).
For test [2], the target named is human sporadic CJD (sCJD) brain homogenate PrP-res (human) (UniProt P04156).
Test [3] concerns the target sheep ARQ scrapie brain homogenate PrP-res (sheep) (UniProt P23907).

In test [1], monoclonal antibody 15B3 returned an IP-RT-QuIC (ThT fluorescence): lowest brain dilution detected in human plasma (dilution of brain tissue) of 1e-10; an IP-RTQ speed and sensitivity with higher 15B3 content on beads (fold higher 15B3 on beads) of 12. For the same substance, in test [2], the eQuIC: lowest PrP-res amount detected in 0.5 ml human cerebrospinal fluid came to 10 ag and the eQuIC: lowest PrP-res amount detected in 0.5 ml human plasma came to 10 ag. The same substance came in with an eQuIC ("20×" 15B3 beads): lowest PrP-res amount detected in 0.5 ml plasma in test [3] of 100 ag.
